Reference: patent US20210063414A1, “METHODS FOR PREVENTING AND/OR TREATING BONE LOSS CONDITIONS BY MODULATING IRISIN” (Dana-Farber Cancer Institute, Inc., priority 2018, published 2021)

Legend:
[1] = target: T1, MLO-Y4 cell surface proteins (Mus musculus, UniProt P04117); experiment: Crosslinking/co-immunoprecipitation/mass spectrometry (TMT quantitative proteomics) to identify irisin receptors; format: binding; details: co-precipitated protein Fabp4 (FABP4_MOUSE)
T1 construct: endogenous in cells; host or cells: MLO-Y4
T1 sequence (P04117 1-132): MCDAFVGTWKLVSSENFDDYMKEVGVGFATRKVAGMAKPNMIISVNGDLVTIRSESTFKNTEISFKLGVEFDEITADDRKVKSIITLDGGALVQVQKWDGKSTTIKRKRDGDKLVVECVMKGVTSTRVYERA
Method in brief: (§1)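 Relative protein abundance came from 6-plex TMT MS3 quantitation on an Orbitrap Fusion Lumos, after in-gel trypsin digestion of Coomassie-stained SDS-PAGE lanes. Input was a Ni-NTA pulldown (250 mM imidazole elution) of lysates from murine MLO-Y4 cells. These cells were treated on ice with His-tagged irisin or adipsin (10 nM, 20 min) in serum-free medium, then crosslinked with 1.5 mM DTSSP for 30 min.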

[2] = target: T2, MLO-Y4 cell surface proteins (Mus musculus, UniProt P52825); experiment: as above; format: binding; details: co-precipitated protein Cpt2 (CPT2_MOUSE)
T2 construct: endogenous in cells; host or cells: MLO-Y4
T2 sequence (P52825 26-658): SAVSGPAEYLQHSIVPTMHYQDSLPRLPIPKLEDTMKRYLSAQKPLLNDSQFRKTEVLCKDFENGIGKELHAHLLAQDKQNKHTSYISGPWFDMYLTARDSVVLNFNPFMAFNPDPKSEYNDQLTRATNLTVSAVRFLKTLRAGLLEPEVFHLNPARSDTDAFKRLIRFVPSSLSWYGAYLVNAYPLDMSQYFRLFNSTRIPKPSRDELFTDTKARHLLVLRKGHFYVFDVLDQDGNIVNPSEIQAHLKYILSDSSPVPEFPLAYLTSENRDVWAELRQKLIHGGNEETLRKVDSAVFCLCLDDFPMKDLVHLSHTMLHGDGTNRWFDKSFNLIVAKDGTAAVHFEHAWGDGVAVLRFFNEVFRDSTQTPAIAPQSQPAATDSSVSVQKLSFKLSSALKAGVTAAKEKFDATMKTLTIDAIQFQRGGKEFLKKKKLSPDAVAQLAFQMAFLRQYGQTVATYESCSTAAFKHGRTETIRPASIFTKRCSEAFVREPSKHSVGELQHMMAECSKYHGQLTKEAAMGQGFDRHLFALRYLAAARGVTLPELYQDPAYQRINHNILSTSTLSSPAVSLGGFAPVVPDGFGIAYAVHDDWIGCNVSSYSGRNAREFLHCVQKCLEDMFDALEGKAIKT
Method in brief: as §1

With adipsin the TMT signal-to-noise ratio [1] was 746.54 and the TMT signal-to-noise ratio [2] was 177.54.
